Results reported in PMC7988011, “NAC blocks Cystatin C amyloid complex aggregation in a cell system and in skin of HCCAA patients” (Nature Communications, 2021).
Values joined by “and” are separate entries in the source; they are usually repeats but may differ in a detail not shown here. Identical values can stand only once.

Columns and labels:
P01034 = assay: non-reducing SDS-PAGE with Western blot; supernatants and cellular extracts incubated with reduced glutathione (3 mM) at 37 °C before electrophoresis; HMW species quantitated by densitometry; conditions: other: non-reducing SDS-PAGE with Western blot
[1] = biological target: the molecule itself; assay: non-reducing SDS-PAGE with Western blot; lysates (1% NP-40 buffer) and supernatants of stable HEK-293T cells; 2% SDS sample buffer without reducing agent, not heated; NuPAGE 4-12% Bis-Tris; blotted with anti-cystatin C MAB1196

B1: L68Q variant of human cystatin C (natural protein, UniProt P01034 27-146, looked up)
chain: SSPGKPPRLVGGPMDASVEEEGVRRALDFAVGEYNKASNDMYHSRALQVVRARKQIVAGVNYFLDVEQGRTTCTKTQPNLDNCPFHDQPHLKRKAFCSFQIYAVPWQGTMTLSKSTCQDA
notes: Vector pBABE-CMV-Puro; also called L68Q-hCC; hCC L68Q
percent reduction of HMW species with 3 mM GSH (secreted fraction) (P01034): ≈90% reduction of the HMW in the secreted fraction | stoichiometry N [1]: 2 and 3 and 4
